# Assay results from the nanobody polyreactivity screen of Harvey et al. (2022).
# Experiment: yeast display, Sf9 membrane polyspecificity reagent, FACS + sequencing; frameworks hold sequencing errors
# In short: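 Sorting gates, low and high (top ~1%), were placed on anti-HA fluorescence to track expression and on streptavidin fluorescence to track reagent binding. A clone's polyreactivity label is taken from the gate it came out of. The reagent was 10% biotinylated, detergent-solubilized Sf9 membrane, applied for 1 hour at 4 °C to galactose-induced yeast display cells.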
row,Sequence,polyreactivity (PSR sort gate)
1,QVQLVESGGGLVQAGGSLRLSCAASGITFGSYAMGWYRQAPGKEREFVAAISLSGGNTYYADSVKGRFTISRDNAKNTVYLQMNSLKPEDTAVYYCAADYEYSGYGYWGQGTQVTVSS,high polyreactivity
2,QVQLVESGGGLVQAGGSLRLSCAASGITFGSYAMGWYRQAPGKERELVAAITSGGGTNYADSVKGRFTISRDNPKNTVYLQMNSLKPEDTAVYYCAARYYYLGTRYGYWGQGTQVTVSS,low polyreactivity
3,QVQLVESGGGLVQAGGSLRLSCAASGITFGTYAMGWYRQATGKERELVDAITRGGRTYYADSVKGRFTISRDNDKNTVYLQMYSLKPEDTAVYYCNAYVLRRYGWRSGDDYDYWGQGTQVNVSS,high polyreactivity
4,QVQLVESGGGLVQAGGSLRLSCAASGITFGVNAMGGSRQAPGKERELVAAITQRGDSTYYADSVKGRFTISRDTAKNTLDLQMNSLKPEDTAVYYCNADYAWRFPVTYDYWGQGTQVTVSS,low polyreactivity
5,QVQLVESGGGLVQAGGSLRLSCAASGITFGVYGMGWYRQAPGKERELVAAISRTGGSTYYADSVKGRFTISRDNAKNTVYLQMNSLKPEDTAVYYCAADRYRRVAKHGYWGQGTQVTVSS,high polyreactivity
6,QVQLVESGGGLVQAGGSLRLSCAASGITFGYYAMGWYRQAPGKEREFVAGITTSGGTTYYADSVKGRFTISRDNENNTVYLHMNSLKPEDTAVYYCAVYGGVKRGSFYYWGQGTQVTVSS,low polyreactivity
7,QVQLVESGGGLVQAGGSLRLSCAASGITFGYYAMGWYRQAPGKERELVAAISWSGDSTYYADSVKGRFTISRDNAKNTVSLQMNSLKPEDTPVYYCTRGSSWEYGAEYNYWGQGTQVTVSS,low polyreactivity
8,QVQLVESGGGLVQAGGSLRLSCAASGITFGYYAMGWYRQAPGKERELVASISWSGDSTYYADSVKGRFTISRDNAKNTVYLQMNSLKPEDTAVYYCNRGSSWEYGAEYNYWGQGTQETVSS,low polyreactivity
9,QVQLVESGGGLVQAGGSLRLSCAASGITFGYYAMGWYRQAPGKERELVATITDGGGTKYADSVKGRFTISRDNAKNTVYLQINSLKPEDTAVYYCAAGLRHVYATEYDYWGQGTQVTVSS,low polyreactivity
10,QVQLVESGGGLVQAGGSLRLSCAASGITFGYYAMGWYRQAPGKERELVATLTDGGGTKYADSVKGRFTISRDNAMNTVYLQMDSLKPEDTAVYYCAAGLRHVYATEYDYWGQGTQVTVSS,low polyreactivity
11,QVQLVESGGGLVQAGGSLRLSCAASGITFHDNAMGWYRQAPGKERELVAGSTSGGSTFYADSVKGRFTISRDNAKNTVYLQMNSLKPEDTAVYYCAARRSKYRRGGGYYWGQGTQVTVSS,high polyreactivity
12,QVQLVESGGGLVQAGGSLRLSCAASGITFHKYAMGWYRQAPGKESELVAAISSGGGTYYADSVKGRFTISRDNAKNTVYLQMNSLKPEDTAVYYCNADIEWLWVRYDYWGQGTQVTVSS,high polyreactivity
13,QVQLVESGGGLVQAGGSLRLSCAASGITFIIYVMGWYRQAPGKERELVAAISSTGSTYYADSVKGRFTISRDNAKNTVYLQMNSLKPEDTAVYYCAARGRRSSNGFYYWGQGTQVTVSS,high polyreactivity
14,QVQLVESGGGLVQAGGSLRLSCAASGITFIKNAMGWYRQAPGKERELVAAISRSGGRTYYADSVKGRFTISRDNAKNTVYLQMNSLKPEDTAVYYCAAVTQRSYFYDYWGQGTQVTVSS,high polyreactivity
15,QVQLVESGGGLVQAGGSLRLSCAASGITFILYAMGWYRQAPGKERELVASITSGGSTDYADSVKGRFTISRDNAKTTVYLQMNSLKPEDTAVYYCAADGRTYHHHDGGWYRYDYWGQGTQVTVSS,low polyreactivity
16,QVQLVESGGGLVQAGGSLRLSCAASGITFISYAMGWYRQAPGKERELVAVISKSGGRTYYADSVKGRFTISRDNAKNTVYLQMNSLKPEDTAVYYCAATKRYASGMYYWGQGTQVTVSS,high polyreactivity
17,QVQLVESGGGLVQAGGSLRLSCAASGITFIVKTMGWYRQAPGKEREFVATISANSDGTYYADSVKGRFTISRDNAKNTVYLQMNSLKPEDTAVYYWGQGTQVTVSS,low polyreactivity
18,QVQLVESGGGLVQAGGSLRLSCAASGITFIWYAMGWYRQAPGKERELVAAISTSGGSTYYADSVKGRFTISRDNAKNTVYLQMNSLKPEDTAVYYCAAVSGGVSRSYDRYYWGQGTQVTVSS,high polyreactivity
19,QVQLVESGGGLVQAGGSLRLSCAASGITFIYYAMGWYSQAPGKDRELVAAISRSGGSTYYADSVKGRFTISRDNAKNTVYLQMNSLKPEETAVYYCAADGSKYSGRVTGDYWGQGTQVTVSS,high polyreactivity
20,QVQLVESGGGLVQAGGSLRLSCAASGITFKAYAMGWYRQAPGKERELVAAINTSGARTYYADSVKGRFTISRDNAKNTVYLQMNSLKPEDTAVYYCNARLHQQEGDYWGQGTQVTVSS,low polyreactivity
21,QVQLVESGGGLVQAGGSLRLSCAASGITFKDYAMGWYRQATGKERELVAVISYSGGSTYYADSVKGRFTISRDNAKNTVYLEMNSLKPEDTAVYYCAARVGPEYDWGQGTQVTVSS,low polyreactivity
22,QVQLVESGGGLVQAGGSLRLSCAASGITFKPYAMGWYRQAPGKERELVATITFRGGSTYYADSVKGRFTISRDNAKNTVYLQMNSLNPEDTAVYYCAAVTRRYVLSTFYYWGQGTQVTVSS,high polyreactivity

row,Sequence,polyreactivity (PSR sort gate)
1,QVQLVESGGGLVQAGGSLRLSCAASGITFKPYGMGWSRQAPGKERELVADITSGGITYYADSVKGRFTISRDNAKNTVYLQMNSLKPEDTAVYYCAAPYQQHVYHHYWGQGTQVTVSS,low polyreactivity
2,QVQLVESGGGLVQAGGSLRLSCAASGITFKPYGMGWYRPAPGKERELVADITSGGITYYADSVKGRFTISRDNAKNTVYLQMNSLKPEDTAVYYCATGDLFVYYWGYVVRLYDYWGQGTQVTVSS,low polyreactivity
3,QVQLVESGGGLVQAGGSLRLSCAASGITFKRYAMGWYRQAPGKERELVAAITISAGSTYYADSVKGRFTISRDNAKNTVYLQMNSLKPEDTAVYYCAAESYGSWYYYWGQGTQVTVSS,high polyreactivity
4,QVQLVESGGGLVQAGGSLRLSCAASGITFKTYAMGWYRQAPGKVRELVATITRGSRTNYADSVKGRFTISRDNAKNTVYLQMNSLKREHTAVYYCAAHYTTFIRSPDGDYLGQGTQVTVSS,low polyreactivity
5,QVQLVESGGGLVQAGGSLRLSCAASGITFKWNALGWYRQAPGKERELVAVISSDGRTYYADSVKWRFTISRDKAKNTVYLQMNSLKPEDTAVYYCNADRSVIHRGYIWQPGRNDYWGQGTQVTVSS,low polyreactivity
6,QVQLVESGGGLVQAGGSLRLSCAASGITFKWNDMGWYRQAPGKEREFVAAITGSTGSTFYADSVKGRFTISRDNAKNTVYLQMISLKPEDTAVYYCAAGPWFYYWGQGTQVTVSS,low polyreactivity
7,QVQLVESGGGLVQAGGSLRLSCAASGITFKYTAMGWYRQAPGKERELVAAISRRGGRTYYADSVKGRFTISRDNAKNTVYLQMNSLKPEDTAVYYCNVETWSVGGREYDYWGQGTQVTVSS,high polyreactivity
8,QVQLVESGGGLVQAGGSLRLSCAASGITFKYYAMGWYRQAPGKERELVADISWGGGSTYYADSVKGRFTISRDNAKNTVYLQMNSLKPEDTAVYYCAAEYSGSYYSFWMVYWGLGTQVTVSS,low polyreactivity
9,QVQLVESGGGLVQAGGSLRLSCAASGITFLANAMGWYRQAPGKERELVATITSRGASTYYADSVKGRFTISRDNAKNTVYLQMNSLKPEDSAVYYCAATVRRRYERYNYWGQGTQVTVSS,high polyreactivity
10,QVQLVESGGGLVQAGGSLRLSCAASGITFLDYTMGWYRQAPGKERELVATISKSGGSTYYADSVKGRFTISRDNAKNTVYLQMNSLKPEDTAVYYFAARGFSFWRYYYWGQGTQVTVSS,high polyreactivity
11,QVQLVESGGGLVQAGGSLRLSCAASGITFLPYAMGWYRPEPGKERELVAAITRGGGSTYADSVKGRFTISRDNAKNTVYLQMNSLKPEDTAVYYCNAKGRGWTAQYDYWGQGTQVTVSS,low polyreactivity
12,QVQLVESGGGLVQAGGSLRLSCAASGITFLPYTMGWYRQAPGKERELVATISWNGGSTYYADSVKGRFTISRDNAKNTVYLQMNSLKPEDTAVYYCATGKWGYFRYNYWGQGTQVTVSS,high polyreactivity
13,QVQLVESGGGLVQAGGSLRLSCAASGITFLTYAMGWYRQSPGKDRELVASITYSGGTTYYADSVKGRFTISRDNAKNTVYLQMNSLQPEDTAVYYCNTDWRTSVGYDYWGQGTQVTVSS,low polyreactivity
14,QVQLVESGGGLVQAGGSLRLSCAASGITFLTYTMGWYRQAPGKERELVAAISRSGGRTYYADSVKGRFTISRDNAKNTVYFQMNSLKPEDTAVYYCAAVSANQDFDYWGQGTQVTVSS,high polyreactivity
15,QVQLVESGGGLVQAGGSLRLSCAASGITFLYYTRGWYRPAPGKERELVASISRSGNTYYADSVKGRFTISRDNAKNTVYLQMNSLKPEDTAVYYCAAKRKSYYSYNFDYWGQGTQVTVSS,high polyreactivity
16,QVQLVESGGGLVQAGGSLRLSCAASGITFNAYAMGLYRQAPGKERELVAAISRSGGSTYYADSVKGRFTISRDNANNTVYLQMNSLKPEDTAVYYCAVDYRTRGDYWGQGTQVTVSS,high polyreactivity
17,QVQLVESGGGLVQAGGSLRLSCAASGITFNDNAMGWYRQAPGKERELVAAINSGTGTYYADSVKGRFTISRDNAKNTVYLQMNSLKPEDTAVYYCAADSRPYLRDYWGQGTQVTVSS,low polyreactivity
18,QVQLVESGGGLVQAGGSLRLSCAASGITFNEYAMGWYIQAPGKERELVAAISRRGGSTYYADSVKGRFTISRDNAKNTVYLQMNSLKPEDTAVYYCAAYYPSHEYSGFWSDTYEYWGQGTQVTVSS,low polyreactivity
19,QVQLVESGGGLVQAGGSLRLSCAASGITFNRYAMGWYRQAPGKERELVATISYRGGSTSYADSVKGRFTISRDNAKNTVYLQMNSLKPEDTAVYYCATDEGYVLFKYYSWGQGTQVTVSS,low polyreactivity
20,QVQLVESGGGLVQAGGSLRLSCAASGITFNSYAMGWYRQAPGKERELVAAISGSGSSTYYADSVKGRFTISRDNAKNTVYLQMNSLKPEDTAVYYCAATVYSSWTYYTHEYWGQGTQVTVSS,low polyreactivity
21,QVQLVESGGGLVQAGGSLRLSCAASGITFNTYAMGWYRQAPGKERELVAVITWSDGGTYYADSVKGRFTISRDNAKNTVYLQMNSLKPEDTAVYYCAKVLGGLRHGEVLDEYDYWGQGTQVTVSS,low polyreactivity
